B1: TPR t1 (parent)
chain: GACCAAUCUGCCCUCAGAGCUCGAGAACAUCUUCGGAUGCAGAGGAGGCAGGCUUCGGUGGCGCGAUAGCGCCAACGUCCUCAACCUCCAAUGCAUCCCACCACAUGAUGAUGCCUGAAGAGCCUUGGUUUUUUG

Variants of: B1
Assay: polymerase ribozyme fitness, log enrichment relative to wild type (log ratio); higher = more active; in vitro selection for triplet polymerase activity
In short: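 Mutant libraries for each subunit of a heterodimeric triplet polymerase ribozyme were made by PCR and then transcribed. Each library underwent one round of in vitro selection in triplicate: annealing with a biotinylated primer, the partner subunit and triplets, frozen incubation at −7 °C, gel excision of extended constructs, streptavidin-bead capture and RT-PCR. Input and output libraries were Illumina-sequenced, and only genotypes with ≥10 input reads and ≥1 read per output were kept. Fitness is the logarithm, base 2, of genotype enrichment over wild-type enrichment, computed from inverse-variance-weighted replicate averages.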

Row | Variant | polymerase ribozyme fitness (log ratio)
1 | GACCAAACUGCCCUCAGAGCUCGAGAACAUCUUCGGAUGCAGAGGAGGCAGGCUUCGGUGGCGCGAUAGCGGCAACGUCCUCAACCUAGAAUGCAUCCCACAACAUAAUGAUACCUGAAGAGCCUUGGUUUUUUG | -6.44
2 | GACCAAUCUGCCCUCAGAGCUCGAGAACAUCUUCCGAUGCAGAGGAGGCAGGCUUCGGGGGCGCGAUAGCGCCAAAGUCCUCAACCUCCAAUGCAUCACACCACAUGAUGAUGCCUGAAGAGCCUUGGUUUUUUG | -5.8
3 | GACCAAUCUGGCCUCAGAGCUCGAGAACAUCUUCGGAUGCCGAGGAGGCAGGCUUCGGUGGCGCGAUAGCGCCAACGUCCUCAACCACCAAUGCAUCCCACCACAUGAUGAUGCCUGAAGAACCUUGGUUUUUUG | -0.672
4 | GACCAAUCUGCCCUCAGAGCUCGAGAACAUCUUCGGAUGCAGAGGAGGGAGGCUUCGGUGGCGCGAUAGCGCCAACGUCCUCAACCUCCAAUGCAUCCCACCACAUGAUGAUGCGUGAAGAGCCUUGGUUUUUUG | -2.98
5 | GACCAAUCUGCCCUCAGAGCUCGAGAACAUCUUCGGAUGCAGAGGAGGCUGGCUUCGGUGGCGCGAUAGCGCCAACGUCCUCAACCUCCAAUGCAUCCCACCACAUGAUGAUGCCUGAACAGCCUUGGUUUUUUG | 0.234
6 | GACCAAUCUGCCCUCAGAGCUCGAGAACAUCUUAGGAUGCAGAGGAGGCAGGCUUCGGUGGCGCGAUAGCGCAAACGUCCUCAACCUCCAAUGCAUCCCACCACAUGAUGAUGCCUGAAGAGCCUUGGUUUUUUG | -2.46
7 | GACCAAUCUGCCUUCAGAGCUCGAGAACAUCUUCGGAUGCAGAGGAGGCAGGCUUCGGUGGCGCGAUAGCGCCAACGUCCUCAACCUACCAUGCAUCCCACCACAUGAUGAUGCCUGAAGAGCCUUGGUUUUUUG | -1.03
8 | GACCAAUCUGCCCUCAGAGCUCGAGAAUAUCUUCGGAUGCAGAGGAGGCAGGCUUCGGUGGCGCGAUAGCGGCAACGUCCUCAACCUCCAAUGCAUCCCACCACAUGAUCAUGCCUGAAGAGCCUUGGUUUUUUG | -1.52
9 | GACCAAUCUGCCCUCAGAGCUCGAGAACAUCUUCGGAUGCAGAGGAUGCAGGCUUCGGUGGCGCGAUAGCGCCAACGUCCUCAACCUCCAAUGGAUCCCACCACAUGAUGAUGCCUGAAGAGCCUUGGUUUUUUG | -3.51
10 | GACCAAUCUGCCCUCAGAGCUCGAGAACAUCUUCGGGUGCAGAGCAGGCAGGCUUCGGUGGCGCGAUAGCGCCAACGUCCUCAACCUCUAAUGCGUCCCACCACAUGAUGAUGCCUGAAGAGCCUUGGUUUUUUG | -5.88
11 | GACCAAUCUGCCCUCAGAGCUCGAGAACAUCUUCGGAUGCAGAGGAGGCAGGCUUGGGUGGCGCGAUAGCGCCAACGUCCUCAACCUCCAAUUCAUCCCACCACAUGAUGAUGCCUGAAGAGCCUUGGUUUUUUG | -2.19
12 | GACCAAUCUGCCCUCAGAGCUAGAGAACAUCUUCGGAUGCAGAGGAGGCAGGUUUCGGUGGCGCGAUAGCGCCAACGUCCUCAACCUCCAAUGCAUCCCACCACAUGAUGAUUCCUGAAGAGCCUUGGUUUUUUG | -4.93
13 | GACCAAUCUGCCCUCAGAGCUCGAGAACAUCUUCGGAUGAAGAGGAGGCAGGCUUCGGUGGCGCGAUAGCGCUAACGACCUCAACCUCCAAUGCAUCCCACCACAUGAUGAUGCCUGAAGAGCCUUGGUUUUUUG | -0.967
14 | GACCAAUCUGCCCUCAGAGCUCGAGAACAUCUUCGGAUGGAGAGGAGGCAGGCUUCGGUGGCGCGAUAGCGUCAACGUCCUCAACCUCCAAUGCAUCCCACCACAUGAUGAUGCCUGAAGAGCCUUGGUUUUUUG | -1.47
15 | GACCAAUCUGGCCUCAGAGCUCGAGAACAUCUUCGGAUGCAGAGGAGGCAGGCUUCGGUGGCGCGGUAGCGCCAACGUCCUCAACCUCCAAUGCAUCCCACCACAAGAUGAUGCCUGAAGAGCCUUGGUUUUUUG | -0.837
16 | GACCAAUCUGCCCUCAGAUCUCGAGAACAUCUUCGGUUGCAGAGGAGGCAGGCUUCGGUGGCGCGAUAGCGCCAACGUCCUCAACCUCCAAUGCAUCCCACCACAUGAUGAUGCCUGAAGAGCCUUGGUUUUUUG | -3.17
17 | GAUCAAUGUGCCCUCAGAGCUCGAGAACAUCUUCGGAUGCAGAGGAGUCAGGCUUCGGUGGCGCGAUAGCGCCAACGUCCUCAACCUCCAAUUCAUCCCACCACAUGAUGAUGCCUGAAGAGCCUUGGUUUUUUG | -0.42
18 | GACCAAUCUGCCCUCAGAGCUCGAGAACAUCUUCGGAUGCAGAGGAGGCAGGCUUCGGUGGCGCGAUAGCGCAAACGUCCUCAACCUCCAAUGCAUCCCACCACAUGAUGAUGCCUGAAGAACCUUGGUUUUUUG | -0.64
19 | GACCAAUCUGCCCUCAGAGCUCGAGAACAUCUUCGGAUGCAGAGGAGGCAGGCUUCGGUGGCGCGAUAGGGCCAACGUCCUCAACCUCCAAUGCAUCCCACCACAUGAUGAUGCCUGAAGAGCCGUGGUUUUUUG | -4.85
20 | GACCAAUCUGCCCUCAGAGCUCGAGAACAUCUUCGGAUGCAGAGGAGGCAGGCUUCGGUGGCGCGAUAGCGCCAACGUCCUCAACCUCCAAUGCAUCCCAACACAUGAUGAGGCAUGAAGAGCCUUGGUUUUUUG | -0.657
21 | GACCGAUCUGCCCUCAGAGCUCGAGAUCAUCUUCGGAUGCAGAGGGGGCAGGCUUCGGUGGCGCGAUAGCGCCAACGUCCUCAACCUCCAAUGCAUCCCACCACAUGAUGAUGCCUGAAGAGCCUUGGUUUUUUG | -2.16

Row | Variant | polymerase ribozyme fitness (log ratio)
22 | GACCAAACUGCCCUCAGAGCUCGAGAACAUCUUCGGAUGCAGAGGACGCAGGCUUCGGUGGUGCGAUAGCGCCAACGUCCUCAACCUCCAAUGCAUCCCACCACAUGAUGAUGCCUGAAGAGCCUUGGUUUUUUG | -1.37
23 | GACCAAUCUGCCCUCAGAGCUCGAGAACAUCUUCGGAUGCAGAGGAGGCAGGCUUCGGUGGCACGAUAGCGCCAACGUCCUCAACCUCCAAUGAAUCCCACCACAUGAUGAUGCCUGAAGAGCCUUGGUUUUUUG | -0.982
24 | GACCAAUCUGCCCUCAGAGCUCGAGAACAUCUUCGGAUGCAGAGGAGGCAGGCUUCGGUGGCGCGAUAGCGCCAACGUCCUAAACCUCCAAUGUAUCUCACCACACGAUGAUGCCUGAAGAGCCUUGGUUUUUUG | -2.21
25 | GACCAAUCUGCCCUCAGAGCUCGAGAACAUGUUCGGAUGCAGAGGAGGCAGGCUUCGGUGGCGCGAUAGCGCCAACGUCCUCAACCUCCAAUGCAUCCGACCACAUGAUGAUGCCUGAAGAGCCUUGGUUUUUUG | -6.63
26 | GACCAAUCUGCCCUCAGAGCUCGAGAACAUCUUCGGAUGCAGAGGAGGCAGGCUUAGGUGGCGCGAUAGCGCCAACGUCCUCAACCUCCAAUGCAUCCCACCACAUGAUGAUGCCUGAAGAGCGUUGGUUUUUUG | 1.08
27 | GACCAAUCUGCCCUCAGAGCUCGAGAACAUCUUCGGAUGCAGAGGAGGCAGGCAGCGGUGACGCGAUAGCGCCAACGUCUUCAACCUCCAAUGCAUCCCACCACAUGAUGAUGCCUGAAGAGCCUUGGUUUUUUG | -0.516
28 | GACCAGUCUGCCCUCAGAGCUCGAGAACAUCUUCGGAUGCAGAGAAGGCAGGCUUCGGUGGCGCGAUAGCGUCAACGUCCUCAACCUCCAAUGCAUCCCACCACAUGAGGAUGCCUGAAUAGCCUUGGUUUUUUG | -5.05
29 | GACCAAUCUGCCCUCAGAGCUCGAGAACAUCUUCGGAUGCAGAGGUGGCAGGCUUCGGUGGCGCGAUAGCGCCAACGUCCUCAACCUCCAAUGCAUCCCUCCACAUGAUGAUGCCUGAAGAGCCUUGGUUUUUUG | -1.69
30 | GACCAAUCUGCCCUCUGAGCUUGAGAACAUCUUCGGAUGCAGAGGAGGCAGGCUUCGGUGGUGCGAUAGCGCCAACGCCCUCAACCUCCAAGGCAUCCCACCACAUGAUGAUGCCUGAAAAGACUUGGUUUUUUG | -6.53
31 | GACCAAUCUGCCCUCAGAGCUCGAGAACAUCUUCGUAUGCAGAGGAGGCAGGCUUCGGUGGCGCGAUAGGGCCAACGUCCUCAACCUCCAAUGCAUCCCACCACAUGAUGAUGCCUGAAGAGCCUUGGUUUUUUG | -4.21
32 | GACCAAUCUGGCCUCAGAGCUCCAGAACAUCCUCGGAUGCAGAGGAGGCAGGCUUCGGUGACGCGAUAGCGCCAACGUCCUCAACUUCCAAUGCAUCCCACCACAUGAUGAUGCCUGAAGAGCCUUGGUUUUAUG | -5.64
33 | GACCAAUCUGCCCUCAGAGCUCGAGAACAUCUCCGGAUGCAGAGGAGGCAGGCUUCGGUGGCGUGAUAGCGCCAACGUCCUCAACCUCCAAUGCAUCCCACCACAUGAUGAUGCCUGAAGAGCCUUGGUUUUUUG | -3.44
34 | GACCAUUCUGCCCUCAGAGCUCGAGAACAUCUUCGGAUGCAGAAGAGGCAGGCUUUGGUGGCGCGAUAGCGCCAACGUCCUCAACCUCCAAUGCAUCCCACCACAUGAUGAUGCCUGAAGAGCCUUGGUUUUUUG | -0.291
35 | GACCAAUCUGCCCGCAGAGCUCGAGAACAUCUUCGGAUGCAGAGGAGACGGGCUUCGGUGGCGCGAUAGCGACAACGUCCUCAACCUCCAAUGCAUCCCACCACAUGAUGAUGCCUGAACCGCCUUGGUUUUUUG | -1.94
36 | GACCAAUCUGCCCUCAGAGCUCGAGAACAUCUUCGGACGCAGAGGUGGCAGGCUUCGGUGGCGCGAUAGCGCCAACGUCCUCAACCUCCAAUGCAUCCCCCCACAUGAUGAUGCCUGAAGAGCCUUGGUUUUUUG | -4.28
37 | GACCAAUCUGCCCUCAGAGCUCGAGAACAUCUUCGGAUGCAGAGGAGGCAGGCUUCGGUGGCGCGAUAGCGCCAACGUCCUCAACAUCCAAUGCAUCCCACCACAUGAUGAUGCCUGAAGGGCCUUGGUUUUUUG | 1.66
38 | GACCAAUCUGCCCUCAGAGCUCGAGAACAUCUUCGGAUGCAGAGGAGGCAGGCUUCGGUGGCGCGAUAGUGCCAACGACCUCAACCUCCAAUGCUUCCCACCACAUGAUGAGGCCUGAAGAGCCUUGGUUUUAUG | -0.788
39 | GACCAAUCUGCUCUCAGAGCUCGAGAACAUCUUCGGAUGCAGAGGAGGCAGGCUUCGGUGGCGCGAUAGCGCCAACGUACUCAACCUCCAAUGCAUCCCACCACAUGAUGAUGCCUGAAGAGCCUUGGUUUUUUG | -0.645
40 | GACCAAUCUGCCCUCAGAGCGCGAGAACAUCUUCGGAUGCAGAGGAGGCAGGCUUCGGUGGCGCGAUAGCGCCAACGUCCUCAACCUCCAAUGCAUCCCACCACAUGAUGAUGCCUGAAGAGCCUUGGUUUUUUG | -0.965
41 | GACCAAUCUGCCCUCAGAGAUCGAGAACAUCUUCGGAUGCAGAGGAGGCAGGCUUCGGUGGCGCGAUAGCGCAAACGUCCUCAACCUCCAAUGCAUCCCACCACAUGAUGAUGCCUGAAGAGCCUUGGUUUUUUG | -2.14
42 | GACCAAUCUGCCCUCAGAGCUCGAGAACAUCUUCGGAGGCAGAGGAGGCAGGCUUCGGUGGCGCGAUAGCGCCAACGUCAUCAACCUUCAAUGCAUCCCACCACAUGAUGAUGCCUGAAGAGCCUUGGUUUUUUG | -4.45

From the RNAGym collection of RNA variant scans (doi:10.1073/pnas.2313332121)
